In the nanobody polyreactivity screen of Harvey et al. (2022):

Experiment: yeast display, Sf9 membrane polyspecificity reagent, FACS + sequencing; frameworks hold sequencing errors
Outline: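 Nanobodies from a synthetic yeast display library (Saccharomyces cerevisiae BJ5465), induced 36–48 hours with galactose, were stained 1 hour at 4 °C with 10% biotinylated, detergent-solubilized Sf9 membrane reagent, enriched on streptavidin microbeads, then FACS-sorted. Anti-HA (expression) and streptavidin (reagent binding) fluorescence set low and high (top ~1%) gates. Polyreactivity labels come from the gate of origin. Genes were colony-PCR amplified, MiSeq 2 × 250 sequenced and filtered by CDR length.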

Sequence: QVQLVESGGGLVQAGGSLRLICAASGYTFPYNVMGWYRQAQGKERELVAAITSSGGSTYYADSVKGRFTISRDNAKTTVYLQMNSLKPEDTAVYYCNASPSSSLFDYLGQGTQVTVSS
- polyreactivity (PSR sort gate): low polyreactivity

Sequence: QVQLVESGGGLVQAGGSLSFSCAASGFIFRAYTMGWYRQAPGKERELVAAITSSGGRTYYADSVKGRFTISRDNAKNSVYLQMNSLKPEDTAVYYCATVYAKWKQFDYWGQGTQVTVSS
- polyreactivity (PSR sort gate): high polyreactivity

Sequence: QVQLVESGGGLVQAGGSLRLSCAASGSIFYSYAMGWSRQAPGKERELFAAISYSTTSTYYADSVKGRFTISCDNAKNTVYLQMKSLKPEDTAVYYCAVDYIIWYDGYLLYYWGQGTQVTVSS
- polyreactivity (PSR sort gate): low polyreactivity

Sequence: QVQHVESGGVIVQAGGSHRLSCAASGHIFFYYTMGWYRQAPGKERELVAGITIGGSTNYADSVKGRFTISRDTAKNTVYLQMNSLKPEDTAVYYCNVVKYVYIYSYWEYYYWGQGTQVTVSS
- polyreactivity (PSR sort gate): low polyreactivity

Sequence: QVQLVESGGALVQAGGSLRLSCAASGRTINYYAMGWYRQAPGKERELVAAITWSGSSTYYADSVKGRFTISRDNAKYTVYLQMNSLKPEDTAVYYCNKASYTGYRSKRFYYWGQGTQVTVSS
- polyreactivity (PSR sort gate): high polyreactivity

Sequence: QVQLVESGGGLVQAGGSLRLSCAASGFTFDTYGMGWYRQAPGKERELVAAITGDGDSTYYADSVKGRFTISRDNAKNTVYLQMNSLKPEDTAVYYCATDQDVVGYWTIYYYAWGYEYCGQGTQVTVSS
- polyreactivity (PSR sort gate): low polyreactivity

Sequence: QVQLVESGGGLVQAGGSLRLSCAASGRILELNAMGWYRQAPGKERELVAGISNSGDTTYYADSVKGRFTISRDNAKNTVYLQMNSLKPEDTAVYYCNADGVVTWYDYWGQGTQVTVSS
- polyreactivity (PSR sort gate): low polyreactivity

Sequence: QVQLVESGGGLVQAGGSLRLSCAASGRTFHSNDMGWYRQAPGKERELVAAISSSDGITYYADSVKGRFTISRDNAKNTVYLQMNSLKQEDNAVYYCAARRYRSGYYSFYFWGQGTQVTVSS
- polyreactivity (PSR sort gate): high polyreactivity

Sequence: QVQLVESGGGLVQAGGSLRLSCAASGSTFYKYVMGWYRQAPGKERELVAAISWSGGSTYYADSVKGRFTISRDNAKNTVYLQMNSLKPEDPAVYYCAAETYAYLFHTYDYWGQGTQVTVSS
- polyreactivity (PSR sort gate): low polyreactivity

Sequence: QVQLVESGGGLVQAGGSLRLSCAASGSIFNSNAMGWYRQAPGKERELVATIRWSGGSTNYADSVKGRFTISRDNAKNTVYLQMNSLKPEDTAVYYCAVLPRGSNGMDYWGQGTQVTVSS
- polyreactivity (PSR sort gate): low polyreactivity

Sequence: QVQLVESGGGLVQAGGSLRLSCAASGRIFYGNTMGWYRQAPGKERELVAAITWRGGSTYYADSVKGRFTISRDNAKITVYLQMNSLKPEDTAVYYCAAVSYRGRGYWGQGTQVTVSS
- polyreactivity (PSR sort gate): high polyreactivity

Sequence: QVQLVESGGGLVQAGGSLRLSCAASGRTLGTNAMGWYRQAPGKERELVATISRGGITNYADSVKGRFTISRDNPKNTVYLQMNSLKPEDTAVYYCNVRYQHVYRGYGPNKYNYWGQGTQVTVSS
- polyreactivity (PSR sort gate): high polyreactivity

Sequence: QVQLVESGGGLVQAGGSLSLSCAASGFTVYGYAMGWYRQAPGKERELVAAISRRSSSTYYADSVKGRFTISRDNAKNTVYLQMNSLKPEDTAVYYCNTVFQRTGYAAGVDYWGQGTQVTVSS
- polyreactivity (PSR sort gate): high polyreactivity

Sequence: QVQLVESGGGLVQAGGSLRLSCAASGFIFTWYAMGWYRQAPGKEREFVAGISRSGGRTYYADSVKGRFTISRDNAKNTVYLHVNSLKPEVTAVFYCGAKYYIGFWLRDYYYWGQCTQVTVSS
- polyreactivity (PSR sort gate): high polyreactivity

Sequence: QVQLVESGGGLVQAGGSLRLSCAASGLIFRHYAMGWYRQAPGKERELVAAIDYSGGSTYYADSVKGRFTISRDNAKNSVYLQMNSLKPEDTAVYYCAADYFWLYYSEYGYWGQGTQVNVSS
- polyreactivity (PSR sort gate): low polyreactivity

Sequence: QVQLVESGGGLVQAGGSLRLSCAASGRISQIYAMGWYRQAPGKERELVARITSTDSTYYADSVKGRFTISRDNAKNTVYLQMNSLKPEDTAVYYCAASWWSPYDYWGQGTQVTVSS
- polyreactivity (PSR sort gate): low polyreactivity

Sequence: QVQLVESGGGLVQAGGSLRLSCAASGLIFGGNAMGWYRQAPGKERELVAAISRTGGRTYYADSVKGRFTISRDNAKNTVFLQMNSLKPEDTAVYYCNAATSYYTYTYGYWGQGTQVTVSS
- polyreactivity (PSR sort gate): high polyreactivity

Sequence: QVQLVESGGGLVQAGGSLRLSCAASGFIFRKYAMGWYRQAPGTERELVAAIRQRGGTTYYADSVKGRFTISRDNAKNTVSLQMNSLKPEDTAVNYCAAPYSSAYKYDYWGQGTQVTVSS
- polyreactivity (PSR sort gate): high polyreactivity

Sequence: QVQRVESGGGLVQAGGSLRLSCAASRITFTVNAMGWYRQAPGKERELVAAISWSGGSTYYADSVKGRFTISRDIAKNTVYLQMNSLKPEDTAVYYCNAVLYRFAYNYWGQGTQVTVSS
- polyreactivity (PSR sort gate): low polyreactivity

Sequence: QVQLVESGGGLVQAGGSLRLSCAASGSIFITYAMGWYRQAPGKERELVAAITWRGGSTYYADSVKGRFTISRDNAKNTVYLQMNSLKPEDTAVYYCAAEDFYYRSQYRYWYDYWGQGTQVTVSS
- polyreactivity (PSR sort gate): high polyreactivity

Sequence: QVQLVESGGGLVQAGGSLRLSCAASGSTFAFYAMGWYRQAPGKERELVAAISSSGARTYYADSVKGRFTLSRDNAKNTVYLQMNSLKPEDTAVYYCAAAFYRLYITSYYYWGQGTQVTVSS
- polyreactivity (PSR sort gate): high polyreactivity

Sequence: QVQLVESGGGLVQAGGSLRLSCAASGSTFKSYAMGWYRQAPGKERELVAAITRGGSTNYADSVKGRFTISRDNAKNTVYLQMNSLKPEDTAVYYCAKTYRYRTMDYWGQGTQVTVSS
- polyreactivity (PSR sort gate): low polyreactivity

Sequence: QVQLVESGGGLVQAGGSLRLSCAASGIILDPNAMGGYRQAPGKERELVAGITRSGVSTYYADSVKGRFTISRDNAKNTVYLQMKSLKPEDTAVYYCAKDRIYGSKGEDDDYWGQGTQVTVSS
- polyreactivity (PSR sort gate): low polyreactivity

Sequence: QVQIVESGGGLVQAGGSLRLSCDASGSIFYSNAIGWYRQAPGKERELVASIRGSGVSTYYADSVKGRFTISRDNAKNTVYLQMNSLKPEDTAVYYCAARYVRSYFGFYYWGQGTQVTVSS
- polyreactivity (PSR sort gate): high polyreactivity

Sequence: QVQLVESGGGLVQAGGSLRLSCAASGRIFYGYAMGWYRKAPVKEREFVAAITVSAGSTYYADSVKGRFTISRDNAKNTVYLLMNSLKPEDTAVYYCASKRYVYPSYRFDYWGQGTQVSVSS
- polyreactivity (PSR sort gate): low polyreactivity

Sequence: QVQLVESGGGLVQAGGRLRLSCAASGTTAENVMGWYRQAPGKERELVAAISSRGGSTYYADSVKGRFTISRDNAKNTVYLQKNSLKPEDTAVYYCAAEYVSHFSGYRYDYWGQGTHVTVSS
- polyreactivity (PSR sort gate): low polyreactivity

Sequence: QVQLVESGGGLVQAGGSLRLSCAASGRTFYRNAMGWYRQAPGKERELVAAISSRGGSTYYADSVKGRFTISRDNAKNSVYLQMNSLKPEDTAVYYCAATYGYGGDYDYWGQGTQVTVSS
- polyreactivity (PSR sort gate): high polyreactivity

Sequence: QVQLVESGGGLVQAGGSLRLSCAASGSTFVPNAMGWYRQAPGKERELVAALTFSGGTTYYADSVKGRFTISRDNAKNTVYLQMNSLKPEGTAVYYCAADYFSNLWWSGHAWRYYYWGQGTQVTVSS
- polyreactivity (PSR sort gate): low polyreactivity

Sequence: QVQLVESGGGLVQAGGSLRLSCAASGRIFRLYTMGWYRQAPGKERELVAAISSAGSTKYADSVKGRFTISRDNAKNTVYLQMNSLKPEDTAVYYCAAGRYYYRSGFYTPVRYYSWGQGTQVTVSS
- polyreactivity (PSR sort gate): high polyreactivity

Sequence: QVQLVESGGGLVQAGGSLRLICAASGSKFSSYCMGWYRQATGQEMELVAAISKRGGSTYYADTVKGRFTISRDNAKNTVYLQMNSLKPEDTAVYYCAAAVSIQGYSTLFDYWGQGTQVTVSS
- polyreactivity (PSR sort gate): high polyreactivity

Sequence: QVQLVESAGGLVQAGASLRLSCAASGSTFYYYAMGWYRQAPGKERELVAAIDWDSGSTYYADSVKGRFTISRDNAKNTVFLQMNSLNPEDTAVYYCAADSWFSDFDYWGQGTQETVSS
- polyreactivity (PSR sort gate): high polyreactivity

Sequence: QVQLVESGGGLVQAGGSLRLSCAASGSIFGFYAMGWYRQAPGKERELVASITISGGSTYYADSVKGRFTISRDNAKNTVYLQLNSLKPEDTAVYYCAARRFWDYNYWGQGTQVTVSS
- polyreactivity (PSR sort gate): low polyreactivity
